# Measured values: PMC11077535
# How the values were obtained:
# [1] = target: androglobin heme-binding globin domain (circularly permuted globin domain of androglobin) (human); assay: SEC; size exclusion analysis in a phosphate buffer, without salt
# [2] = target: androglobin heme-binding globin domain (circularly permuted globin domain of androglobin) (human); assay: SEC; size exclusion analysis in 150 mM NaCl buffer
substance,measurement,setting,value
androglobin heme-binding globin domain (circularly permuted globin domain of androglobin) (domain or fragment),stoichiometry N,[1],2
same,stoichiometry N,[2],4
